The target of this assay is T1, CRFR2β (CRF receptor 2 beta) (human, UniProt Q60748 35-411 (mouse entry)).
T1 construct: also called CRFR2b; CRFRIIβ
Nature of the assay: 125I-BMP7 tracer (5x10^5 cpm) with or without unlabeled BMP7, Ni-NTA pull-down, gamma counting; CRFR2β as control receptor. How it is done:
In a particular example, BMPRII, ALK3 and CRFR2β were incubated with 5×10⁵ cpm ¹²⁵I-BMP7 tracer in the presence or absence of 40 nM unlabeled BMP7 as competitor. BMPRII and ALK3 are type II and type I receptors of BMP7, respectively. CRFR2β is a G-protein coupled receptor with no known affinity for BMP7 and was included as a control. Samples were prepared in triplicate in 1.7 ml eppendorf tubes in a final volume of 1 ml binding buffer (150 mM NaCl, 50 mM Tris (pH 7.5), 0.1% BSA). Binding was performed for […] at room temperature. After an initial 60 minutes of binding, 20 μl of 50% Ni—NTA resin (Qiagen) was added to each sample and allowed to bind for the balance of the […] incubation period. Complexes were precipitated by centrifugation and washed three times in 1 ml binding buffer. After the final wash, bound ¹²⁵I-BMP7 tracer was quantified in a gamma counter. BMP7 was iodinated using a modified Cloramine-T procedure (see, e.g., Lawler et al., J. Neurosci. Meth., 49:141-53, 1993).

We go through 1 molecule from patent US20060211087A1 (SALK INSTITUTE FOR BIOLOGICAL STUDIES, published 2006).

T1 sequence (Q60748 other isoform, or with tags, fused parts or gaps): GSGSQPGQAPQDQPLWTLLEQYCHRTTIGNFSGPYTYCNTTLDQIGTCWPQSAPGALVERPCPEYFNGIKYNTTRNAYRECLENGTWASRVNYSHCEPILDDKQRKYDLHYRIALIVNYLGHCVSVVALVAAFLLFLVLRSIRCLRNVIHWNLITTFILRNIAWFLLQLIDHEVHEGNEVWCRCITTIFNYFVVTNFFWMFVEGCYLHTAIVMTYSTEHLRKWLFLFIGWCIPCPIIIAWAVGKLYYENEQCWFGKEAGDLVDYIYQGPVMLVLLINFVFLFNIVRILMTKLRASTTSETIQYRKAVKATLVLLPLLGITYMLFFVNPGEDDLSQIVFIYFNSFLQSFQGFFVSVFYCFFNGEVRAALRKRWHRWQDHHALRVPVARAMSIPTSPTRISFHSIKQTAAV

B1: BMP7 (ligand, UniProt P18075 293-431, looked up)
chain: STGSKQRSQNRSKTPKNQEALRMANVAENSSSDQRQACKKHELYVSFRDLGWQDWIIAPEGYAAYYCEGECAFPLNSYMNATNHAIVQTLVHFINPETVPKPCCAPTQLNAISVLYFDDSSNVILKKYRNMVVRACGCH
modifications: 125I-iodinated by a modified Chloramine-T procedure (tracer); unlabeled form used as competitor
notes: also called unlabeled BMP7
For B1, the binding result is reported as “no binding (tested: 40 nM unlabeled BMP7)”.
